# Laboratory results as given in the Human Domainome abundance scans (Beltran et al. 2025).
# ± gives the uncertainty stated by the source.
# B1: POU domain, class 4, transcription factor 2, residues 256 to 327; numbered along this chain, Q12837 (parent)
# chain: RDLEAFAERFKQRRIKLGVTQADVGSALANLKIPGVGSLSQSTICRFESLTLSHNNMIALKPILQAWLEEAE
# Variants of: B1
# Test: abundance fitness (aPCA) (normalised: wild type 0, dead -1); higher = more abundant; growth selection in yeast, the domain comes from the species named
# Settings: Homo sapiens
row,Variant,abundance fitness
1,E69C,-0.062 ± 0.12
2,E69L,-0.099 ± 0.1
3,E69D,-0.349 ± 0.19
4,E8M,-0.137 ± 0.1
5,E8C,-0.313 ± 0.076
6,L52E,-0.732 ± 0.22
7,L52D,-0.472 ± 0.18
8,L52F,-0.682 ± 0.21
9,E48L,-0.93 ± 0.17
10,E48V,-1.17 ± 0.26
11,R46S,0.076 ± 0.045
12,A27G,-0.39 ± 0.083
13,L64G,-0.787 ± 0.12
14,L64N,-0.823 ± 0.2
15,L64K,-0.884 ± 0.42
16,F47Q,-0.59 ± 0.18
17,F47M,-0.781 ± 0.17
18,F47R,-0.864 ± 0.094
19,G35F,-0.084 ± 0.44
20,G35D,-0.36 ± 0.22
21,G35E,-0.435 ± 0.19
22,G35V,-0.299 ± 0.092
23,G35C,-0.512 ± 0.19
24,V19S,-0.092 ± 0.052

row,Variant,abundance fitness
1,V19K,0.258 ± 0.32
2,V19P,-0.987 ± 0.14
3,V19H,-0.12 ± 0.13
4,L28E,-0.657 ± 0.17
5,L28H,-0.786 ± 0.19
6,L28Y,-0.747 ± 0.16
7,K16T,-0.015 ± 0.072
8,K16F,-0.066 ± 0.11
9,K16W,-0.403 ± 0.14
10,K16D,-0.392 ± 0.16
11,K16H,0.028 ± 0.11
12,K16A,0.001 ± 0.055
13,K16C,-0.137 ± 0.1
14,N55Q,0.073 ± 0.088
15,N55V,-0.013 ± 0.1
16,N55G,-0.009 ± 0.098
17,N55D,-0.009 ± 0.12
18,N55L,-0.121 ± 0.055
19,N55W,-0.403 ± 0.083
20,V24A,-0.067 ± 0.13
21,V24T,-0.948 ± 0.17
22,V24M,-0.191 ± 0.098
23,R13C,-0.476 ± 0.18
24,R13S,-0.014 ± 0.054

row,Variant,abundance fitness
1,R13P,-1.02 ± 0.14
2,Q41T,0.077 ± 0.087
3,Q41C,-0.37 ± 0.11
4,Q41E,0.111 ± 0.076
5,Q41F,-0.335 ± 0.12
6,Q41V,-0.187 ± 0.077
7,Q41S,-0.044 ± 0.061
8,Q12S,-0.186 ± 0.065
9,Q12Y,-0.463 ± 0.23
10,Q12D,-0.148 ± 0.16
11,Q12C,-0.865 ± 0.43
12,T20L,-0.607 ± 0.083
13,T20S,-0.067 ± 0.045
14,T20K,-0.159 ± 0.083
15,T20I,-0.916 ± 0.34
16,K32L,-0.279 ± 0.065
17,K32M,-0.215 ± 0.13
18,K32I,-0.181 ± 0.058
19,K32V,-0.021 ± 0.097
20,K32N,0.189 ± 0.3
21,K32F,-0.372 ± 0.14
22,A22Q,-0.052 ± 0.08
23,A22V,-0.339 ± 0.08
24,A22G,-0.038 ± 0.046

row,Variant,abundance fitness
1,A22I,-0.393 ± 0.17
2,C45G,0.02 ± 0.069
3,C45R,-0.008 ± 0.059
4,C45V,-0.004 ± 0.084
5,C45I,-0.261 ± 0.15
6,C45T,-0.161 ± 0.11
7,C45D,-0.135 ± 0.11
8,C45M,-0.251 ± 0.33
9,A71V,-0.296 ± 0.19
10,A71P,-0.671 ± 0.17
11,A71G,-0.284 ± 0.077
12,A71L,-0.433 ± 0.098
13,K11M,-0.706 ± 0.13
14,K11P,-0.994 ± 0.12
15,K11A,-0.337 ± 0.064
16,K11R,-0.106 ± 0.056
17,K11E,-0.914 ± 0.34
18,L39C,-0.168 ± 0.12
19,L39T,-0.204 ± 0.096
20,L39Y,-0.53 ± 0.16
21,N56W,-0.057 ± 0.13
22,N56F,-0.149 ± 0.24
23,N56Q,0.275 ± 0.39
24,N56C,0.146 ± 0.12

row,Variant,abundance fitness
1,N56P,-0.52 ± 0.082
2,N56V,0.083 ± 0.2
3,N56M,-0.304 ± 0.31
4,I58L,0.02 ± 0.056
5,I58W,-0.152 ± 0.061
6,I58Y,-0.461 ± 0.16
7,P34K,-0.008 ± 0.088
8,P34G,-0.1 ± 0.1
9,P34D,-0.221 ± 0.13
10,P34Y,-0.515 ± 0.36
11,P34A,-0.244 ± 0.094
12,P34C,-0.679 ± 0.19
13,S42K,0.068 ± 0.27
14,A29M,-0.046 ± 0.11
15,A29T,-0.107 ± 0.072
16,A29Q,0.108 ± 0.078
17,A29C,-0.136 ± 0.093
18,S49T,-0.035 ± 0.12
19,S49G,0.055 ± 0.093
20,S49H,-0.587 ± 0.3
21,S49L,-0.297 ± 0.056
22,S49C,-0.245 ± 0.14
23,T51S,0.018 ± 0.028
24,T51K,0.264 ± 0.16

row,Variant,abundance fitness
1,V36I,0.166 ± 0.17
2,V36K,-0.532 ± 0.14
3,N30H,-0.087 ± 0.13
4,N30G,-0.103 ± 0.097
5,N30C,-0.094 ± 0.13
6,N30T,-0.112 ± 0.092
7,S40N,-0.108 ± 0.41
8,S40E,-0.15 ± 0.11
9,S40Y,-0.685 ± 0.2
10,S40D,0.016 ± 0.3
11,S40A,-0.203 ± 0.056
12,S40C,-0.131 ± 0.084
13,Q65A,-0.084 ± 0.052
14,Q65C,-0.132 ± 0.14
15,A66W,-0.138 ± 0.088
16,A66C,-0.378 ± 0.12
17,A66I,-0.187 ± 0.2
18,I15H,-0.451 ± 0.13
19,I15K,0.015 ± 0.086
20,I15A,-0.237 ± 0.082
21,I15Y,-0.444 ± 0.15
22,I15S,-0.262 ± 0.056
23,I15N,-0.521 ± 0.14
24,I15G,-0.515 ± 0.085

row,Variant,abundance fitness
1,I15T,0.026 ± 0.083
2,I15C,-0.405 ± 0.12
3,I15E,-0.226 ± 0.11
4,A59E,-0.193 ± 0.17
5,A59T,-0.038 ± 0.075
6,A59W,-0.087 ± 0.074
7,R9L,0.1 ± 0.052
8,R9N,-0.005 ± 0.19
9,I63G,-0.414 ± 0.07
10,I63F,0.164 ± 0.31
11,I63N,-0.628 ± 0.33
12,I63A,-0.03 ± 0.077
13,G25T,0.117 ± 0.097
14,G25D,-0.501 ± 0.26
15,G25M,-0.242 ± 0.21
16,A7Q,-1.01 ± 0.28
17,A7H,-0.772 ± 0.23
18,A5L,0.017 ± 0.12
19,F10M,-0.694 ± 0.34
20,F10E,-0.755 ± 0.26
21,F10D,-0.823 ± 0.21
22,F10P,-0.994 ± 0.12
23,L17Y,-0.778 ± 0.32
